Values belong to the substance of their own block, whether it stands above or below them.
Assays:
TopBP1 [1] = biological target: TopBP1 (UniProt Q92547); experiment: biotin-peptide streptavidin pull-down from nuclear extract; settings: reference: nonphosphorylated peptide; sites S304
[2] = biological target: TopBP1 BRCT domains 4 and 5 (UniProt Q92547); experiment: biotin-peptide pull-down of purified GST-BRCT4-5; settings: reference: nonphosphorylated peptide; sites S304
TopBP1 [3] = biological target: TopBP1 (UniProt Q92547); experiment: GFP-BLM pull-down, western blot; settings: reference: wild type; sites S304
TopBP1 [4] = biological target: TopBP1 (UniProt Q92547); experiment: GFP-BLM pull-down, western blot; settings: reference: wild type; sites S304; remark: listed apart in the source
TopBP1 BRCT5 [5] = biological target: TopBP1 BRCT5 (UniProt Q92547); experiment: GST-BRCT5 pull-down of SFB-BLM from lysate; settings: reference: wild type; sites S304
TopBP1 [6] = biological target: TopBP1 (UniProt Q92547); experiment: GFP-BLM pull-down, western blot; settings: reference: wild type; sites S304; remark: listed apart in the source
TopBP1 BRCT5 [7] = biological target: TopBP1 BRCT5 (UniProt Q92547); experiment: biotin-peptide (Ser304) pull-down of purified GST-BRCT5; settings: reference: nonphosphorylated Ser304 peptide; sites S304

- binding against the reference (TopBP1 [1]): gained
- binding against the reference [2]: gained
Substance: BLM 297-311 (from UniProt P54132) pS304 peptide

- binding against the reference (TopBP1 [3]): lost
- binding against the reference (TopBP1 [4]): weaker
- binding against the reference (TopBP1 BRCT5 [5]): weaker
- binding against the reference (TopBP1 [6]): weaker
Substance: BLM (from UniProt P54132) S304A

- binding against the reference (TopBP1 BRCT5 [7]): gained
Substance: BLM (from UniProt P54132) pS304 peptide

Source: article PMC4374139
